Biological target: GST-CHE (Arabidopsis thaliana, UniProt Q9FTA2 1-239)
Assay: EMSA; 5 pmol protein, 50 fmol probe; no HaRxL10; LightShift Chemiluminescent EMSA Kit per manufacturer; 5 pmol protein, 50 fmol biotin probe, 200-fold unlabelled competitor; probes annealed in 10 mM Tris, 1 mM Na2EDTA, 50 mM NaCl; binding buffer, pH and temperature not stated
Settings: protein: recombinant; tags: GST (pET-42a); chain copies: 2; label: 5'-biotin; blunt

GST-CHE, sequence (Q9FTA2 whole entry): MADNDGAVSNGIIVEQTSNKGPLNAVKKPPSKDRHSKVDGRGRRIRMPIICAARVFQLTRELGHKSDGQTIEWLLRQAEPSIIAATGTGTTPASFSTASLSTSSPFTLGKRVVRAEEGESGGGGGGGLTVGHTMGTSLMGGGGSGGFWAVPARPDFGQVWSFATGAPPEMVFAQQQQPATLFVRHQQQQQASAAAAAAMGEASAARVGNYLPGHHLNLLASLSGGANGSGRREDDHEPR

B1: TBS probe (dsDNA)
DNA 1: GTAGGTCCCACTAGGTAGGTCCCACTAGGTAGGTCCCACTAGGTAGGTCCCACTAGGTAGGTCCCACTAG
DNA 2: CTAGTGGGACCTACCTAGTGGGACCTACCTAGTGGGACCTACCTAGTGGGACCTACCTAGTGGGACCTAC
binding result: binds

Reference: paper PMC11814294, “A pathogen effector HaRxL10 hijacks the circadian clock component CHE to perturb both plant development and immunity”
